# Measured values: US20230220080A1 (EPIMAB BIOTHERAPEUTICS, published 2023)
# T1: recombinant human IL-20 (human, UniProt Q9NYY1 25-176)
# T1 sequence (looked up): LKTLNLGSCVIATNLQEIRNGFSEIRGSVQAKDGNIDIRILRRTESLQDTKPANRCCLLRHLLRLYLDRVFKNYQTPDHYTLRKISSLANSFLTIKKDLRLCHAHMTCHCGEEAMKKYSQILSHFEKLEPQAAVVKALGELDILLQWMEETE
# B1: Factor IXa mAb (antibody, V domains shown)
# VH: QVQLVESGGGLVQPGGSLRLSCAASGFTFSYYDIQWVRQAPGKGLEWVSSISPSGQSTYYRREVKGRFTISRDNSKNTLYLQMNSLRAEDTAVYYCARRTGREYGGGWYFDYWGQGTLVTVSS
# VL: DIQMTQSPSSLSASVGDRVTITCKASRNIERQLAWYQQKPGQAPELLIYQASRKESGVPDRFSGSRYGTDFTLTISSLQPEDIATYYCQQYSDPPLTFGGGTKVEIK
# notes: parental mAb; also called Factor IX mAb; mAb FIX
# B2: FIT14-Ig Factor IXa/Factor X (bispecific antibody, human IgG4 S228P, kappa)
# chain 1: DIQMTQSPSSLSASVGDRVTITCKASRNIERQLAWYQQKPGQAPELLIYQASRKESGVPDRFSGSRYGTDFTLTISSLQPEDIATYYCQQYSDPPLTFGGGTKVEIKRTVAAPSVFIFPPSDEQLKSGTASVVCLLNNFYPREAKVQWKVDNALQSGNSQESVTEQDSKDSTYSLSSTLTLSKADYEKHKVYACEVTHQGLSSPVTKSFNRGECQVQLVQSGSELKKPGASVKVSCKASGYTFTDNNMDWVRQAPGQGLEWMGDINTRSGGSIYNEEFQDRVIMTVDKSTDTAYMELSSLRSEDTATYHCARRKSYGYYLDEWGEGTLVTVSSASTKGPSVFPLAPCSRSTSESTAALGCLVKDYFPEPVTVSWNSGALTSGVHTFPAVLQSSGLYSLSSVVTVPSSSLGTQTYTCNVDHKPSNTKVDKRVESKYGPPCPPCPAPEFLGGPSVFLFPPKPKDTLMISRTPEVTCVVVDVSQEDPEVQFNWYVDGVEVHNAKTKPREEQYNSTYRVVSVLTVLHQDWLNGKEYKCKVSNKGLPSSIEKTISKAKGQPREPQVYTLPPSQEEMTKNQVSLTCLVKGFYPSDIAVEWESNGQPENNYKTTPPVLDSDGSFFLYSKLTVDKSRWQEGNVFSCSVMHEALHNHYTQESLSLSP
# chain 2: QVQLVESGGGLVQPGGSLRLSCAASGFTFSYYDIQWVRQAPGKGLEWVSSISPSGQSTYYRREVKGRFTISRDNSKNTLYLQMNSLRAEDTAVYYCARRTGREYGGGWYFDYWGQGTLVTVSSASTKGPSVFPLAPSSKSTSGGTAALGCLVKDYFPEPVTVSWNSGALTSGVHTFPAVLQSSGLYSLSSVVTVPSSSLGTQTYICNVNHKPSNTKVDKKVEPKSC
# chain 3: DIQMTQSPSSLSASVGDRVTITCKASRNIERQLAWYQQKPGQAPELLIYQASRKESGVPDRFSGSRYGTDFTLTISSLQPEDIATYYCQQYSDPPLTFGGGTKVEIKRTVAAPSVFIFPPSDEQLKSGTASVVCLLNNFYPREAKVQWKVDNALQSGNSQESVTEQDSKDSTYSLSSTLTLSKADYEKHKVYACEVTHQGLSSPVTKSFNRGEC
# notes: leader left out; also called FIT-Ig 014; FIT-Ig 14
# B3: Anti-IL-17/IL-20 FIT1-Ig (bispecific antibody, human IgG1, kappa)
# chain 1: not shown
# chain 2: QVQLVQSGAEVKKPGSSVKVSCKASGYSFTDYHIHWVRQAPGQGLEWMGVINPMYGTTDYNQRFKGRVTITADESTSTAYMELSSLRSEDTAVYYCARYDYFTGTGVYWGQGTLVTVSSASTKGPSVFPLAPSSKSTSGGTAALGCLVKDYFPEPVTVSWNSGALTSGVHTFPAVLQSSGLYSLSSVVTVPSSSLGTQTYICNVNHKPSNTKVDKKVEPKSC
# chain 3: not shown
# notes: three-polypeptide FIT-Ig, no linker, human IgG1 Fc; described as tetravalent, so two copies of each chain
# B4: Anti-IL-17/IL-20 FIT3-Ig (bispecific antibody, human IgG1, kappa)
# chain 1: not shown
# chain 2: B3 chain 2
# chain 3: not shown
# notes: three-polypeptide FIT-Ig with GGGGSGS linker; tetravalent
# B5: Anti-IL-17/IL-20 FIT2-Ig (bispecific antibody, human IgG1, kappa)
# chain 1: not shown
# chain 2: B3 chain 2
# chain 3: not shown
# notes: three-polypeptide FIT-Ig with GSG linker; tetravalent
# Legend:
# [1] = molecular target: T2, hFactor IX (Enzyme Research Laboratory) (human, UniProt P00740 47-461); test: SPR Biacore X100, Ig captured by anti-Fc, 500 nM antigen
# T2 construct: also called FIX
# Protocol: Affinity measurement by surface plasmon resonance: The kinetics of FIT-Ig binding to hFactor IX and hFactor X (Enzyme Research Laboratory) was determined by surface plasmon resonance with a Biacore X100 instrument (Biacore AB, Uppsala, Sweden) using HBS-EP (10 mM HEPES, pH 7.4, 150 mM NaCl, 3 mM EDTA, and 0.005% surfactant P20) at 25° C. Briefly, goat anti-human IgG Fc fragment specific polyclonal antibody (Pierce Biotechnology Inc, Rockford, Ill.) was directly immobilized across a CM5 research grade biosensor chip using a standard amine coupling kit according to manufacturer's instructions. Purified FIT-Ig samples were diluted in HEPES-buffered saline for capture across goat anti-human IgG Fc specific reaction surfaces and injected over reaction matrices at a flow rate of 5 μl/min. The association and dissociation rate constants, kon (M-1s-1) and koff (s-1) were determined under a continuous flow rate of 30 μL/min. Rate constants were derived by making kinetic binding measurements at 500 nM antigen concentrations. The equilibrium dissociation constant (M) of the reaction between FIT-Ig and the target proteins was then calculated from the kinetic rate constants by the following formula: KD=koff/kon. Aliquots of antigen samples were also simultaneously injected over a blank reference and reaction CM surface to record and subtract any nonspecific binding background to eliminate the majority of the refractive index change and injection noise. Surfaces were regenerated with two subsequent 25 ml injections of 10 mM Glycine (pH 1.5) at a flow rate of 10 μL/min. The anti-Fc antibody immobilized surfaces were completely regenerated and retained their full capture capacity over twelve cycles.
# Factor IXa = Factor IXa (UniProt P00740 47-461, limits assumed); test: method not stated
# recombinant human IL-17 [2] = molecular target: T3, recombinant human IL-17 (human, UniProt Q16552 24-155); test: cell-based or functional assay
# recombinant human IL-20 [3] = molecular target: T1, recombinant human IL-20; test: cell-based or functional assay
# recombinant human IL-17 [4] = molecular target: T3, recombinant human IL-17; test: SPR Biacore, Ig captured by anti-Fc, antigen injected
# Protocol: (§1) The kinetics of FIT-Ig binding to rhIL-17 and rhIL-20 was determined by surface plasmon resonance (Table 5) with a Biacore X100 instrument (Biacore AB, Uppsala, Sweden) using HBS-EP (10 mM HEPES, pH 7.4, 150 mM NaCl, 3 mM EDTA, and 0.005% surfactant P20) at 25° C. Briefly, goat anti-human IgG Fcγ fragment specific polyclonal antibody (Pierce Biotechnology Inc, Rockford, Ill.) was directly immobilized across a CM5 research grade biosensor chip using a standard amine coupling kit according to manufacturer's instructions. Purified FIT-Ig samples were diluted in HEPES-buffered saline for capture across goat anti-human IgG Fc specific reaction surfaces and injected over reaction matrices at a flow rate of 5 μl/min. The association and dissociation rate constants, kon (M-1s-1) and koff (s-1) were determined under a continuous flow rate of 30 μL/min. […] The equilibrium dissociation constant (M) of the reaction between FIT-Ig and the target proteins was then calculated from the kinetic rate constants by the following formula: KD=koff/kon. Aliquots of antigen samples were also simultaneously injected over a blank reference and reaction CM surface to record and subtract any nonspecific binding background to eliminate the majority of the refractive index change and injection noise. Surfaces were regenerated with two subsequent 25 ml injections of 10 mM Glycine (pH 1.5) at a flow rate of 10 μL/min.
# recombinant human IL-20 [5] = molecular target: T1, recombinant human IL-20; test: as above
# Protocol: as §1
# T3 sequence (Q16552 24-155 limits assumed): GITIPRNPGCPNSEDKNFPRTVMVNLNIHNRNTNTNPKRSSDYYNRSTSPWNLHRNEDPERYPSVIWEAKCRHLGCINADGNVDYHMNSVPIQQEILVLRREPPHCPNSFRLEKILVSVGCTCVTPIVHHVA
Binder,Kd [1] [nM],koff [1] [s⁻¹],kon [1] [M⁻¹ s⁻¹],Kd (Factor IXa) [nM],kon (Factor IXa) [M⁻¹ s⁻¹],Neutralization Potency IC50 (GROα production by Hs27 cells) (recombinant human IL-17 [2]) [nM],Neutralization Potency IC50 (IL-20R+ BAF3 cell proliferation) (recombinant human IL-20 [3]) [nM],Kd (recombinant human IL-17 [4]) [nM],koff (recombinant human IL-17 [4]) [s⁻¹],kon (recombinant human IL-17 [4]) [M⁻¹ s⁻¹],Kd (recombinant human IL-20 [5]) [nM],koff (recombinant human IL-20 [5]) [s⁻¹],kon (recombinant human IL-20 [5]) [M⁻¹ s⁻¹]
B1,13,0.000355,27400,13,27400,–,–,–,–,–,–,–,–
B2,–,–,–,9.9,–,–,–,–,–,–,–,–,–
B3,–,–,–,–,–,0.102,0.054,0.00364,3.88e-05,1.07e+07,0.0273,3.82e-05,1.4e+06
B4,–,–,–,–,–,0.146,0.072,0.0011,9.58e-06,8.71e+06,0.0273,3.82e-05,1.4e+06
B5,–,–,–,–,–,0.137,0.05,0.00165,1.53e-05,9.24e+06,0.0195,3.5e-05,1.8e+06
